The target in the experiment is human C3b (human). Put plainly: SPR.

Consider “(R78G)FH1–4^V62 (from UniProt P08603 19-263) (domain or fragment)”, for which the Kd was over 35 µM.

A word on the Kd: it is a measure of binding affinity in units of concentration. Read a high Kd as weaker binding.

These data come from PMC3064162.
